Data reported in US20250222125A1, “Anti-FGFR2b Antibodies, Conjugates and Methods of Use” (BeiGene, Ltd., priority 2024, published 2025).
pEC50, pKd: −log10 of the molar value.

What was measured:
[1] = target: Human FGFR2c OE cells (Homo sapiens, UniProt P21802); assay: FACS cellular binding, human FGFR2c OE cells (Example 4)
Protocol: (§1) The binding affinity and specificity of purified anti-FGFR2b antibodies were determined by ELISA and FACS. […] After incubation and washing, the plates were developed with HRP substrate and absorbance was measured. […] After washing twice with FACS buffer, diluted Alexa Fluor 647 goat anti-human IgG secondary antibody was added and incubated with cells for 30 minutes at 4° C. in the dark. After washing twice with FACS buffer, cells were resuspended with FACS buffer and read using a Becton Dickinson LSR FortessaTM cell analyzer. Non-specific binding of these antibodies was evaluated by FACS binding against parental 293T blank cells. Titration curves were generated using a sigmoidal dose-response of nonlinear fit from GraphPadTM Software by Dotmatics.

[2] = target: Human FGFR2c (Homo sapiens, UniProt P21802); assay: ELISA protein binding to human FGFR2c (Example 4); details: coated protein
Protocol: as §1

[3] = target: T1, Human FGFR2b OE cells (Homo sapiens, UniProt P21802); assay: FACS cellular binding, human FGFR2b OE cells (Example 4)
T1 construct: expressed in transfected cells; host or cells: 293T
Protocol: as §1

[4] = test system: BaF3_hFGFR2b OE cells; assay: Ligand-induced proliferation inhibition assay in BaF3_hFGFR2b OE cells; assay type: cell-based; details: antibody 10 μg/ml, heparin 5 μg/ml, 72 hours
Protocol: The inhibition activity of antibody on ligand-induced cell proliferation was evaluated in an FGFR2b engineered BaF3 cell line system (BaF3_hFGFR2b OE). BaF3 cells are dependent on interleukin-3 (IL-3) for growth. The BaF3 system allows for testing of kinases and kinase inhibitors. Some protein kinases can render BaF3 cells to be independent of IL-3, whereas kinase inhibitors antagonize this effect. Cells were seeded in 96-well plates at 30,000 cells/well in RPMI-1640 medium containing 10% fetal bovine serum. Anti-FGFR2b antibodies at a concentration of 10 μg/ml were added to the assay plates. Recombinant human FGF7 or FGF10 protein (40 ng/ml) in the presence of heparin (5 μg/ml) was added to the assay plates. The plates were incubated at 37° C., 5% CO2, 95% humidity in an incubator for 72 hours. Following incubation, 50 μl Cell Titer Glo reagent was added to each well and the plates were mixed for 1 min and then incubated at RT for 10 min. Luminescence signals were detected and recorded.
The Ba/F3 system is used to investigate downstream oncogenic signaling pathways and the susceptibility of driver variants to therapeutics. Driver-addicted Ba/F3 cells die when the driver-engaged signaling pathway is inhibited, and this effect can be rescued by re-introduction of […].
FIGS. 6 and 7 show the results of Ba/F3 proliferation assays. […]

[5] = target: T2, soluble human FGFR2b proteins (Homo sapiens, UniProt P21802); assay: SPR binding kinetics (Biacore 8K, Example 5); details: room temperature
T2 construct: soluble human FGFR2b proteins (his tag, in-house generated); His tag; made in house
Protocol: The binding affinity and kinetics of purified anti-FGFR2b antibodies were determined by surface plasmon resonance (Biacore 8K, GE Life Sciences) at room temperature. Briefly, mouse anti-human IgG Fc antibody was immobilized via amine coupling onto a activated CM5 biosensor chip (Cat. No. BR100530, GE Life Sciences). Purified monoclonal antibody candidates were flowed over the chip surface and captured by anti-human IgG antibody. Then a serial dilution of soluble human FGFR2b proteins (his tag, in-house generated) were injected over the antibodies captured surface and changes in surface plasmon resonance signals were analyzed to calculate the association rates (kon) and dissociation rates (koff) by using the one-to-one Langmuir binding model (BIA Evaluation Software, GE Life Sciences). The equilibrium dissociation constant (KD) was calculated as the ratio koff/kon.

[6] = patients; cited from earlier work
[7] = target: T3, Murine FGFR2b OE cells (Mus musculus, UniProt P21803); assay: FACS cellular binding, murine FGFR2b OE cells (Example 4)
T3 construct: expressed in transfected cells; host or cells: 293T
Protocol: as §1

[8] = test system: co-inoculated HSC-39+SNU-5 xenografts; assay: Co-inoculated HSC-39+SNU-5 gastric cancer xenografts; assay type: in vivo, BALB/c nude mice; details: HSC-39:SNU-5 ratios of 2:1 and 5:1, single dose 10 mpk i.v.
Protocol: HSC-39 and SNU-5 were cultured in Dulbecco's modified Eagle's medium (DMEM), supplemented with 10% (v/v) fetal bovine serum, 100 U/ml penicillin, and 100 μg/mL streptomycin. Cells were incubated in a humidified incubator with 5% CO2 at 37° C. On the day of implantation, cells were collected and washed with serum-free medium. Six- to eight-week-old female BALB/c nude mice were purchased and housed in ventilated cages, given food and water ad libitum, and allowed to acclimate for approximately 1 week prior to inoculation. A total of 5×10^6 HSC-39 and SNU-5 cancer cells mixed with matrigel at a ratio of 2:1 or 5:1 were implanted subcutaneously into the mouse flank. […] Tumor volumes were measured twice weekly. Data is presented as mean tumor volume ±standard error of the mean (SEM). In the vehicle group at a 2:1 HSC-39:SNU-5 ratio, there were ˜50% FGFR2b positive cells in the tumor at the starting point with ˜40% at the end point. In the vehicle group at a 5:1 HSC-39:SNU-5 ratio, there were ˜60% FGFR2b positive cells in the tumor at the starting point with ˜20% at the end point.

[9] = test system: 293T blank cells; assay: FACS non-specific binding, parental 293T blank cells (Example 4)
Protocol: as §1

[10] = test system: phosphorylated FGFR in SNU-16 cells; assay: Inhibition of FGFR2 signaling in SNU-16 cells (Western blot of pFGFR); assay type: cell-based; details: antibody 10 μg/ml, 2 hours
Protocol: Inhibition of the FGFR2 signaling pathway by the humanized antibodies was investigated. SNU-16 cells were grown in RPMI-1640 medium with 10% FBS, collected and washed twice with free medium and then seeded in 12-well plates at 1.5E6 cells/well in serum-free RPMI-1640. The plates were incubated at 37° C., 5% CO2, and 95% humidity in an incubator overnight. Anti-FGFR2b antibodies at a concentration of 10 μg/ml were added to the assay plates. Recombinant human FGF7 or FGF10 protein (10 ng/ml) in the presence of heparin (5 μg/ml) was added to the assay plates. The plates were incubated in a 37° C., 5% CO2, 95% humidity incubator for 2 hours. Following 2 hours incubation, cells were collected and washed twice with cold PBS. NP40 lysis buffer containing 1×PMSF and 1× Protease plus phosphatase inhibitors were added to the cell pellets. The mixture was pipetted up and down to suspend the pellet. The mixture was inverted gently and each placed for 10 minutes on ice, for a total of 30 minutes. The mixture was centrifuged at 12000× rpm for 10 minutes to pellet the cell debris. The supernatant was transferred to a new tube to quantify total protein concentration by BCA Kit. The protein samples were then split and stored at −80° C. for further Western blotting to detect the expression of pFGFR and total FGFR2. […]

[11] = target: human FGFR2b (Homo sapiens, UniProt P21802); assay: ELISA protein binding to human FGFR2b (Example 4); details: coated protein
Protocol: as §1

T2 sequence (P21802 22-378 isoform P21802-3 limits assumed): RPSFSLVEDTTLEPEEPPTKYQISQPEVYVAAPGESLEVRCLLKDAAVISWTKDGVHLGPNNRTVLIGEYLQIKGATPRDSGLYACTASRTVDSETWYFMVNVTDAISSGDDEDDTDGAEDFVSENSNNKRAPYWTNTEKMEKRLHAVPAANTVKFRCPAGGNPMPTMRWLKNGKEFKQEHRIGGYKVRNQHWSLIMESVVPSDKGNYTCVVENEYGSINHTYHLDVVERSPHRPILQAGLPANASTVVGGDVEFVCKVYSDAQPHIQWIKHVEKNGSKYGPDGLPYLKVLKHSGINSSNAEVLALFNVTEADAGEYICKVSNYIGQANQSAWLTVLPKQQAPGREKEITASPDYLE
Sequence of human FGFR2b (P21802 22-822 isoform P21802-3 limits assumed): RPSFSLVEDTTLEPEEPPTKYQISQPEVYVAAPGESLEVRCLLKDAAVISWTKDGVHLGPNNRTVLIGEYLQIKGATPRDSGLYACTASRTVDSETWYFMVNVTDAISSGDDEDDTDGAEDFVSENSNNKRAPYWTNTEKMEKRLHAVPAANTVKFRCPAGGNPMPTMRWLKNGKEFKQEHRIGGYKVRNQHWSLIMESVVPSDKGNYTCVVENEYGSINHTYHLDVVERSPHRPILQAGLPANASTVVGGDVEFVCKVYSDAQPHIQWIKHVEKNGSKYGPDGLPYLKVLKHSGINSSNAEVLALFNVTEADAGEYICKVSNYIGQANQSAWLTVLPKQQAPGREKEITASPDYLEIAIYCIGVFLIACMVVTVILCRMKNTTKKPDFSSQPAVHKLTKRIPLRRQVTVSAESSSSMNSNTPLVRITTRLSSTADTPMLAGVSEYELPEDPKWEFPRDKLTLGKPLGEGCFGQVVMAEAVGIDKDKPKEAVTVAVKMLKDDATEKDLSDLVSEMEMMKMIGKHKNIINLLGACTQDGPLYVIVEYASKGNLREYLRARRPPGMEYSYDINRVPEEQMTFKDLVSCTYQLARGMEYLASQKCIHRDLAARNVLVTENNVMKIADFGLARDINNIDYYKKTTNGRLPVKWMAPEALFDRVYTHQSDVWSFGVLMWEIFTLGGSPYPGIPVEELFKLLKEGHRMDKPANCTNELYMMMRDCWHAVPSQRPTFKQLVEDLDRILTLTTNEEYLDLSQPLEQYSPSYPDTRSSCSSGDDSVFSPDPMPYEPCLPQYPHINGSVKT
Sequence of Human FGFR2c (P21802 22-821): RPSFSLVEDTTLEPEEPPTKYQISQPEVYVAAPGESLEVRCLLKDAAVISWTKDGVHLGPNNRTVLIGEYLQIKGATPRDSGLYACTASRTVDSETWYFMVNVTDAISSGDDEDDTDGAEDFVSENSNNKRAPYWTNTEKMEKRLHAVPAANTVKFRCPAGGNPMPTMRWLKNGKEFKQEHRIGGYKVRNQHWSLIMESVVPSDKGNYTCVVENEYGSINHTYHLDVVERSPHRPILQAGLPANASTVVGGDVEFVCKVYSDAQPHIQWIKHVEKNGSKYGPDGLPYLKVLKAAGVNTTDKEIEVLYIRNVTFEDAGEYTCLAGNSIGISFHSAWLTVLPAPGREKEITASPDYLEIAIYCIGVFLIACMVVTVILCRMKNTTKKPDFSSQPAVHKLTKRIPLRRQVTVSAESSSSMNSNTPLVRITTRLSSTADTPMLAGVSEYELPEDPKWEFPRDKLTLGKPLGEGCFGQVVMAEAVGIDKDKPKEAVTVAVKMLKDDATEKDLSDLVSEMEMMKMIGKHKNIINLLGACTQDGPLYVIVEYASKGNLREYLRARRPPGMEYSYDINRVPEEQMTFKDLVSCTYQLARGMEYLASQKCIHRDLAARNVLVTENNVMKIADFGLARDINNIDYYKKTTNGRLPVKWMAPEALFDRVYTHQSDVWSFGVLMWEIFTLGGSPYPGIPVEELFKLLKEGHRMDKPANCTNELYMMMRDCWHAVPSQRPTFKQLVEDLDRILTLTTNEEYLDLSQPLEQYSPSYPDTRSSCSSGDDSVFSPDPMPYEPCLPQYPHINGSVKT
Sequence of Human FGFR2c OE cells (P21802 22-821): as above
T1 sequence (P21802 22-822 isoform P21802-3 limits assumed): as the sequence (P21802 22-822 isoform P21802-3 limits assumed) above
T3 sequence (P21803 22-707 isoform P21803-2 limits assumed): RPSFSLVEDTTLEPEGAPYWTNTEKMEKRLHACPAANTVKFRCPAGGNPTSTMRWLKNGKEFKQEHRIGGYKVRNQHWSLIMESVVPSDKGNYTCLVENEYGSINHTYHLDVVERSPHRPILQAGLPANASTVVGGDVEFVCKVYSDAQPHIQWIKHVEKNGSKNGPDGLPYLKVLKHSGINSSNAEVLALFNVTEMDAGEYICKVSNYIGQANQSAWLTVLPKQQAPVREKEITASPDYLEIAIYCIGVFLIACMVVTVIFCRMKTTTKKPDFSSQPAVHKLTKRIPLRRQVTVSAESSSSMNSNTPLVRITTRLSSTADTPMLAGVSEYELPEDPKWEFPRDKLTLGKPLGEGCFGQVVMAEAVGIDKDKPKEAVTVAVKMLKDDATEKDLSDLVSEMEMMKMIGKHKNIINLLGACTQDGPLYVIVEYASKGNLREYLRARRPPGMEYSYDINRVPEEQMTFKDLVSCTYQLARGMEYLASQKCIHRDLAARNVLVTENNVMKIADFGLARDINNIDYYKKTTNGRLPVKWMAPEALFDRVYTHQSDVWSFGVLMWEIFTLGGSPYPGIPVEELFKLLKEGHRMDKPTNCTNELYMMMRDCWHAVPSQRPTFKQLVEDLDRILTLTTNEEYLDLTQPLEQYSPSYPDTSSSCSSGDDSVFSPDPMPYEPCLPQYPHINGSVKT

Question: With “BGA1421: comparator antibody bemarituzumab, un-conjugated; HC SEQ ID NO: 35, LC SEQ ID NO: 36 [reference compound]” as the substance, how does the “Human FGFR2c OE cells binding Emax” value [1] read?
Answer: The value was 40 MFI.

Question: What about the “Human FGFR2c binding Emax(OD450)” value [2] of the same substance?
Answer: Its value is 0.09 OD450.

Question: And the pEC50 [3]?
Answer: The pEC50 was 9.32.

Question: What about the “inhibition of FGF7-induced BaF3_hFGFR2b cell proliferation” value ([4]; FGF7 40 ng/ml) of the same substance?
Answer: Its value is “potently inhibit”.

Question: And the “inhibition of FGF10-induced BaF3_hFGFR2b cell proliferation” value ([4]; FGF10 40 ng/ml)?
Answer: The value was “potently inhibit”.

Question: What about the ka ([5]; antibody captured) of the same substance?
Answer: The ka was 104000 M⁻¹ s⁻¹.

Question: And the kd ([5]; antibody captured)?
Answer: The kd was 0.00232 s⁻¹.

Question: What about the pKd ([5]; koff/kon) of the same substance?
Answer: The pKd was 7.65.

Question: What about the “treatment discontinuation rate caused by corneal toxicity” value [6] of the same substance?
Answer: Its value is 26%.

Question: And the pEC50 [7]?
Answer: Its pEC50 is 9.09.

Question: And the tumor growth [8]?
Answer: Its tumor growth is “inhibited tumor growth but was less potent”.

Question: And the “293T blank cells binding Emax” value [9]?
Answer: Its value is 18 MFI.

Question: What about the “FGF7-induced FGFR phosphorylation” value ([10]; FGF7 10 ng/ml) of the same substance?
Answer: The value was “down-regulation of phosphorylated FGFR”.

Question: And the “FGF10-induced FGFR phosphorylation” value ([10]; FGF10 10 ng/ml)?
Answer: Its value is “down-regulation of phosphorylated FGFR”.

Question: What about the pEC50 [11] of the same substance?
Answer: The pEC50 was 9.21.

Question: What about the “Human FGFR2b binding Emax(OD450)” value [11] of the same substance?
Answer: Its value is 2.62 OD450.
